Paper PMC10374971, “In vivo and in vitro characterizations of melibiose permease (MelB) conformation-dependent nanobodies reveal sugar-binding mechanisms” (The Journal of Biological Chemistry, 2023)

Key:
[1] = biological target: MelBSt (Salmonella enterica serovar Typhimurium) (UniProt P30878); settings: cited from earlier work
[2] = biological target: MelBSt/Nb733 complex, formed beforehand (MelBSt 50 μM with Nb733 75 μM, molar ratio 1:1.5) (Salmonella enterica serovar Typhimurium | Lama glama) (UniProt P30878); test: ITC; EIIA^Glc (450 μM) in the syringe, MelBSt (50 μM), free or complexed with Nb733 (75 μM), in the sample cell; 20 mM Tris-HCl pH 7.5, 100 mM NaCl, 0.01% DDM, 10% glycerol; 25 °C; one-site independent-binding model
[3] = biological target: T1, Salmonella enterica serovar Typhimurium melibiose permease (MelBSt), wild type (Salmonella enterica serovar Typhimurium, UniProt P30878 6-476); test: as above; settings: both partners purified
T1 construct: melibiose permease MelB of Salmonella enterica serovar Typhimurium, wild type; Membrane protein in detergent (0.01% DDM) in the ITC; also called WT MelBSt; source: E. coli DW2, plasmid pK95 ΔAH/MelBSt/CHis10
T1 sequence (P30878 6-476): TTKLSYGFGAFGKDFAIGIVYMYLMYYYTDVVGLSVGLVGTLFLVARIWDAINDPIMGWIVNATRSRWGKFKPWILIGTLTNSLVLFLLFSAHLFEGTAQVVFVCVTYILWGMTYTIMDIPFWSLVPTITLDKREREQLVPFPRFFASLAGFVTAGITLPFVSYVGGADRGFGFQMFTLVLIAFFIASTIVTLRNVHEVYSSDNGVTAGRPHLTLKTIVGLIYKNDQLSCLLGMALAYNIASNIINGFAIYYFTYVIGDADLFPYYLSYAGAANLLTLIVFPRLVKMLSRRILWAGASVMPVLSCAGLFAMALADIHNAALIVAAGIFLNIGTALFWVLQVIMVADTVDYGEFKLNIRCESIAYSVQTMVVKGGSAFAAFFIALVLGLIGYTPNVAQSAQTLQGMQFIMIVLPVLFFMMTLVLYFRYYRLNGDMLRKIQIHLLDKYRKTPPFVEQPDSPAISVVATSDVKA

MelBSt/Nb733 complex, formed beforehand (MelBSt 50 μM with Nb733 75 μM, molar ratio 1:1.5) (Salmonella enterica serovar Typhimurium | Lama glama), sequence (P30878 whole entry, looked up, one chain of several): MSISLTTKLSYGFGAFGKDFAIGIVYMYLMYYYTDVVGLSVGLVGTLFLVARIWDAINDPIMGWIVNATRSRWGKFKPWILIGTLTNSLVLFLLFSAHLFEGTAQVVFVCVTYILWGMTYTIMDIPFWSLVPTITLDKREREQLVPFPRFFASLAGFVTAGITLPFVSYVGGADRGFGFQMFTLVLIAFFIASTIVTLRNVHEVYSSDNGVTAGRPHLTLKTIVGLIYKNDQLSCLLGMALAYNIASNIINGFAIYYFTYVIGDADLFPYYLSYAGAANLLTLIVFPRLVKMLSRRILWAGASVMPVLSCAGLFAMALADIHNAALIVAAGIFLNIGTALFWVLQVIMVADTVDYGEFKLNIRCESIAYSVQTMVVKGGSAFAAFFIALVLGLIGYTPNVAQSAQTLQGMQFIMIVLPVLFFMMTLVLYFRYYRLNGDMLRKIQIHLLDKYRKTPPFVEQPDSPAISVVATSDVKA
MelBSt (Salmonella enterica serovar Typhimurium), sequence (P30878 whole entry): as the sequence (P30878 whole entry, looked up, one chain of several) above

For EIIAGlc (from UniProt P69783), the Kd [1] is listed as 0.003 mM.

For “EIIA^Glc of the glucose-specific phosphoenolpyruvate/sugar phosphotransferase system, unphosphorylated (from UniProt P69783 1-169) (natural protein)”, the Kd [2] was 8.12 mM, the dH [2] was -6.75 kcal/mol and the stoichiometry N [2] was 0.76.

B1: EIIA^Glc of the glucose-specific phosphoenolpyruvate/sugar phosphotransferase system, unphosphorylated (natural protein, UniProt P69783 1-169, looked up)
chain: MGLFDKLKSLVSDDKKDTGTIEIIAPLSGEIVNIEDVPDVVFAEKIVGDGIAIKPTGNKMVAPVDGTIGKIFETNHAFSIESDSGVELFVHFGIDTVELKGEGFKRIAEEGQRVKVGDTVIEFDLPLLEEKAKSTLTPVVISNMDEIKELIKLSGSVTVGETPVIRIKK
notes: regulatory enzyme EIIA^Glc of the glucose-specific phosphotransferase system, unphosphorylated; source: E. coli T7 Express, overexpressed, as described (24)
For B1, the Kd [3] was 3.33 mM, the dH [3] was -9.54 kcal/mol and the “stoichiometry N” value [3] was 0.81.
